Laboratory results: US20140087995A1 (published 2014)
Numbered stars: 1 amine (or outer) side, 2 acyl side, 3 side chain; on linkers, the order of the positions; unused ones are H or OH. Bridge positions count the residues as written; N and C are the ends. Side chains are listed from the residue outwards. Ends that are not written are not given here. * marks the point of attachment. C20 diacid = O=C(O)CCCCCCCCCCCCCCCCCCC(=O)*; γGlu = O=C(O)[C@H](CCC(=O)[*:2])N[*:1]; AEEA = NCCOCCOCC(=O)O

T1: human calcitonin receptor (human, UniProt P30988 25-474)
T1 construct: whole, on cells; Assayed as cell membranes of BHK tk'ts 13 cells stably transfected with the human calcitonin receptor (Assay VII); also called hCTR; hCT
T1 sequence (looked up): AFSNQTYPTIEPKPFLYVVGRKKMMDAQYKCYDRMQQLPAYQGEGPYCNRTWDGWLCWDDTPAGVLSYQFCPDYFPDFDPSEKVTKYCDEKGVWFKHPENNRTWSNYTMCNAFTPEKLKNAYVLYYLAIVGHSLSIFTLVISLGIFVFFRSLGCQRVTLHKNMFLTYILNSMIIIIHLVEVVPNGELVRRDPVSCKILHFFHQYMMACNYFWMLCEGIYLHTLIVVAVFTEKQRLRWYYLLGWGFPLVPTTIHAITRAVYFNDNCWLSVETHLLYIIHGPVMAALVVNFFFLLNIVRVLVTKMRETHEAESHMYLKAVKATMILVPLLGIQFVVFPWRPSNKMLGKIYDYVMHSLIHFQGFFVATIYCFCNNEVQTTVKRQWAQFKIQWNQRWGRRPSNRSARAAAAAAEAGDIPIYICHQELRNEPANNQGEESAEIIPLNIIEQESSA


Experiments:
[1] = molecular target: T1, human calcitonin receptor; experiment: IC50 at hCTR divided by IC50 at hAmylin-R (SPA competition assays V and VII)
Protocol: The resulting pellet was resuspended, homogenized and centrifuged (20.000 rpm, 15 min) in a buffer containing 20 mM Na-HEPES and 0.1 mM EDTA (pH 7.4, buffer 2). The resulting pellet was resuspended in buffer 2 and protein concentration was measured (BCA protein Assay, Pierce). The homogenate was kept cold during the whole procedure. The membranes were kept at −80° C. until use. The assay was performed in a 384 well Optiplate (PerkinElmer) in a total volume of 40 ul. Membranes were mixed with SPA beads. Final concentration of membranes 35 ng/μL final and SPA beads was 0.05 mg/well. Test-compounds were dissolved in DMSO and further diluted in assay buffer (50 mM Hepes, pH 7.4, 1 mM CaCl2, 5 mM MgCl₂, 0.1% OA and 0.02% Tween20). […] The final mixture was incubated with shaking at 400 rpm for 120 min at 25° C. prior to centrifugation (1500 rpm, 10 min). Samples were analyzed on TopCounter™ (Packard). The IC₅₀ was calculated using (one site binding competition analysis) GraphPad Prism5 as a measure of receptor affinity.
Membranes were prepared in the following way; the cells were rinsed with PBS and incubated with Versene for approximately 5 min before harvesting. The cells were flushed with PBS and the cell-suspension was centrifuged for 5 min at 1000 rpm. Cells were homogenized (Ultrathurrax) in a buffer containing 20 mM Na-HEPES and 10 mM EDTA (pH 7.4) and centrifuged at 20.000 rpm for 15 min. The resulting pellet was resuspended, homogenized and centrifuged (20.000 rpm, 15 min) in a buffer containing 20 mM Na-HEPES and 0.1 mM EDTA (pH 7.4, buffer 2). The resulting pellet was resuspended in buffer 2 and protein concentration was measured (BCA protein Assay, Pierce). The homogenate was kept cold during the whole procedure. The membranes were kept at −80° C. until use. Assay was performed in a 384 well Optiplate (PerkinElmer) in a total volume of 40 ul. Membranes were mixed with SPA beads.

[2] = molecular target: T1, human calcitonin receptor; experiment: SPA competition vs 125I-calcitonin, membranes of BHK cells with human calcitonin receptor (Assay VII)
Protocol: Membranes were prepared in the following way; the cells were rinsed with PBS and incubated with Versene for approximately 5 min before harvesting. The cells were flushed with PBS and the cell-suspension was centrifuged for 5 min at 1000 rpm. Cells were homogenized (Ultrathurrax) in a buffer containing 20 mM Na-HEPES and 10 mM EDTA (pH 7.4) and centrifuged at 20.000 rpm for 15 min. The resulting pellet was resuspended, homogenized and centrifuged (20.000 rpm, 15 min) in a buffer containing 20 mM Na-HEPES and 0.1 mM EDTA (pH 7.4, buffer 2). The resulting pellet was resuspended in buffer 2 and protein concentration was measured (BCA protein Assay, Pierce). The homogenate was kept cold during the whole procedure. The membranes were kept at −80° C. until use. Assay was performed in a 384 well Optiplate (PerkinElmer) in a total volume of 40 ul. Membranes were mixed with SPA beads. Final concentration of membranes 35 ng/μL final and Final concentration of SPA beads was 0.05 mg/well. Test-compounds were dissolved in DMSO and further diluted in assay buffer (50 mM Hepes, pH 7.4, 1 mM CaCl2, 5 mM MgCl₂, 0.1% OA and 0.02% Tween20). […] The final mixture was incubated for 120 min with shaking at 400 rpm at 25° C. prior to centrifugation (1500 rpm, 10 min). Samples were analyzed on TopCounter™ (Packard). The […] was calculated using (one site binding competition analysis) GraphPad Prism5 as a measure of receptor affinity.

| Binder | Ratio hCT/hAmylin binding [1] | IC50 [2] [nM] |
| --- | --- | --- |
| K([AEEA-AEEA-γGlu-C20 diacid])CNTATCATQRLANFLRHSSPNFGAIPSSTNVGRNTY-NH2 (disulfide 2-7; N-terminus assumed; SMILES CC[C@H](C)[C@H](NC(=O)[C@H](C)NC(=O)CNC(=O)[C@H](Cc1ccccc1)NC(=O)[C@H](CC(N)=O)NC(=O)[C@@H]1CCCN1C(=O)[C@H](CO)NC(=O)[C@H](CO)NC(=O)[C@H](Cc1c[nH]cn1)NC(=O)[C@H](CCCNC(=N)N)NC(=O)[C@H](CC(C)C)NC(=O)[C@H](Cc1ccccc1)NC(=O)[C@H](CC(N)=O)NC(=O)[C@H](C)NC(=O)[C@H](CC(C)C)NC(=O)[C@H](CCCNC(=N)N)NC(=O)[C@H](CCC(N)=O)NC(=O)[C@@H](NC(=O)[C@H](C)NC(=O)[C@@H]1CSSC[C@H](NC(=O)[C@@H](N)CCCCNC(=O)COCCOCCNC(=O)COCCOCCNC(=O)CC[C@H](NC(=O)CCCCCCCCCCCCCCCCCCC(=O)O)C(=O)O)C(=O)N[C@@H](CC(N)=O)C(=O)N[C@@H]([C@@H](C)O)C(=O)N[C@@H](C)C(=O)N[C@@H]([C@@H](C)O)C(=O)N1)[C@@H](C)O)C(=O)N1CCC[C@H]1C(=O)N[C@@H](CO)C(=O)N[C@@H](CO)C(=O)N[C@H](C(=O)N[C@@H](CC(N)=O)C(=O)N[C@H](C(=O)NCC(=O)N[C@@H](CCCNC(=N)N)C(=O)N[C@@H](CC(N)=O)C(=O)N[C@H](C(=O)N[C@@H](Cc1ccc(O)cc1)C(N)=O)[C@@H](C)O)C(C)C)[C@@H](C)O, also called compound 95) | 63.4 | 61.3 |
| K([AEEA-AEEA-γGlu-C20 diacid])CNTATCATQRLANFLRHSSPNFGAIPSSTNVGHNTY-NH2 (disulfide 2-7; N-terminus assumed; SMILES CC[C@H](C)[C@H](NC(=O)[C@H](C)NC(=O)CNC(=O)[C@H](Cc1ccccc1)NC(=O)[C@H](CC(N)=O)NC(=O)[C@@H]1CCCN1C(=O)[C@H](CO)NC(=O)[C@H](CO)NC(=O)[C@H](Cc1c[nH]cn1)NC(=O)[C@H](CCCNC(=N)N)NC(=O)[C@H](CC(C)C)NC(=O)[C@H](Cc1ccccc1)NC(=O)[C@H](CC(N)=O)NC(=O)[C@H](C)NC(=O)[C@H](CC(C)C)NC(=O)[C@H](CCCNC(=N)N)NC(=O)[C@H](CCC(N)=O)NC(=O)[C@@H](NC(=O)[C@H](C)NC(=O)[C@@H]1CSSC[C@H](NC(=O)[C@@H](N)CCCCNC(=O)COCCOCCNC(=O)COCCOCCNC(=O)CC[C@H](NC(=O)CCCCCCCCCCCCCCCCCCC(=O)O)C(=O)O)C(=O)N[C@@H](CC(N)=O)C(=O)N[C@@H]([C@@H](C)O)C(=O)N[C@@H](C)C(=O)N[C@@H]([C@@H](C)O)C(=O)N1)[C@@H](C)O)C(=O)N1CCC[C@H]1C(=O)N[C@@H](CO)C(=O)N[C@@H](CO)C(=O)N[C@H](C(=O)N[C@@H](CC(N)=O)C(=O)N[C@H](C(=O)NCC(=O)N[C@@H](Cc1c[nH]cn1)C(=O)N[C@@H](CC(N)=O)C(=O)N[C@H](C(=O)N[C@@H](Cc1ccc(O)cc1)C(N)=O)[C@@H](C)O)C(C)C)[C@@H](C)O, also called compound 97) | 104 | 58.9 |

Binders with a lower IC50 [2], results first:

| Ratio hCT/hAmylin binding [1] | IC50 [2] [nM] | Binder |
| --- | --- | --- |
| 79.6 | 13.2 | K([AEEA-AEEA-γGlu-C20 diacid])CNTATCATQRLANFLRHSSPNFGAIPSSTPVGSNTY-NH2 (disulfide 2-7; N-terminus assumed; SMILES CC[C@H](C)[C@H](NC(=O)[C@H](C)NC(=O)CNC(=O)[C@H](Cc1ccccc1)NC(=O)[C@H](CC(N)=O)NC(=O)[C@@H]1CCCN1C(=O)[C@H](CO)NC(=O)[C@H](CO)NC(=O)[C@H](Cc1c[nH]cn1)NC(=O)[C@H](CCCNC(=N)N)NC(=O)[C@H](CC(C)C)NC(=O)[C@H](Cc1ccccc1)NC(=O)[C@H](CC(N)=O)NC(=O)[C@H](C)NC(=O)[C@H](CC(C)C)NC(=O)[C@H](CCCNC(=N)N)NC(=O)[C@H](CCC(N)=O)NC(=O)[C@@H](NC(=O)[C@H](C)NC(=O)[C@@H]1CSSC[C@H](NC(=O)[C@@H](N)CCCCNC(=O)COCCOCCNC(=O)COCCOCCNC(=O)CC[C@H](NC(=O)CCCCCCCCCCCCCCCCCCC(=O)O)C(=O)O)C(=O)N[C@@H](CC(N)=O)C(=O)N[C@@H]([C@@H](C)O)C(=O)N[C@@H](C)C(=O)N[C@@H]([C@@H](C)O)C(=O)N1)[C@@H](C)O)C(=O)N1CCC[C@H]1C(=O)N[C@@H](CO)C(=O)N[C@@H](CO)C(=O)N[C@H](C(=O)N1CCC[C@H]1C(=O)N[C@H](C(=O)NCC(=O)N[C@@H](CO)C(=O)N[C@@H](CC(N)=O)C(=O)N[C@H](C(=O)N[C@@H](Cc1ccc(O)cc1)C(N)=O)[C@@H](C)O)C(C)C)[C@@H](C)O, also called compound 96) |
| 74.1 | 6.74 | K([AEEA-AEEA-γGlu-C20 diacid])CNTATCATQRLANFLRHSSPNFGAIPSSTNVGPNTY-NH2 (disulfide 2-7; N-terminus assumed; SMILES CC[C@H](C)[C@H](NC(=O)[C@H](C)NC(=O)CNC(=O)[C@H](Cc1ccccc1)NC(=O)[C@H](CC(N)=O)NC(=O)[C@@H]1CCCN1C(=O)[C@H](CO)NC(=O)[C@H](CO)NC(=O)[C@H](Cc1c[nH]cn1)NC(=O)[C@H](CCCNC(=N)N)NC(=O)[C@H](CC(C)C)NC(=O)[C@H](Cc1ccccc1)NC(=O)[C@H](CC(N)=O)NC(=O)[C@H](C)NC(=O)[C@H](CC(C)C)NC(=O)[C@H](CCCNC(=N)N)NC(=O)[C@H](CCC(N)=O)NC(=O)[C@@H](NC(=O)[C@H](C)NC(=O)[C@@H]1CSSC[C@H](NC(=O)[C@@H](N)CCCCNC(=O)COCCOCCNC(=O)COCCOCCNC(=O)CC[C@H](NC(=O)CCCCCCCCCCCCCCCCCCC(=O)O)C(=O)O)C(=O)N[C@@H](CC(N)=O)C(=O)N[C@@H]([C@@H](C)O)C(=O)N[C@@H](C)C(=O)N[C@@H]([C@@H](C)O)C(=O)N1)[C@@H](C)O)C(=O)N1CCC[C@H]1C(=O)N[C@@H](CO)C(=O)N[C@@H](CO)C(=O)N[C@H](C(=O)N[C@@H](CC(N)=O)C(=O)N[C@H](C(=O)NCC(=O)N1CCC[C@H]1C(=O)N[C@@H](CC(N)=O)C(=O)N[C@H](C(=O)N[C@@H](Cc1ccc(O)cc1)C(N)=O)[C@@H](C)O)C(C)C)[C@@H](C)O, also called compound 98) |
